Patent publication US10765761B2, “Nucleic acid condensing peptide, nucleic acid condensing peptide set, nucleic acid delivery carrier, nucleic acid delivery method, cell production method, cell detection method and kit” (KABUSHIKI KAISHA TOSHIBA, priority 2016, dated 2020)

Assays:
[1] = tested on: plasmid vector (pDNA); assay: Average particle diameter and Zeta potential of peptide-nucleic-acid complexes (zetasizer), Example 1; assay type: physicochemical
Experimental: The condensability of the nucleic acid by the peptide of the embodiment and the potential of the peptide-nucleic-acid complex were evaluated.
The peptides were each dissolved in 10 mM of HEPES (pH: 5.3) to prepare several peptide solutions having different peptide concentrations.
For the protamine, three peptide solutions were prepared to have peptide concentrations of: (1) 2.1 mg/ml, (2) 2.4 mg/ml and (3) 2.7 mg/ml. For the mHP-4, four peptide solutions were prepared to have peptide concentrations of: (4) 1.8 mg/ml, (5) 2.1 mg/ml, (6) 2.4 mg/ml and (7) 2.7 mg/ml. For the mHP-1, three peptide solutions were prepared to have peptide concentrations of: (8) 2.1 mg/ml, (9) 2.4 mg/ml and (10) 2.7 mg/ml. For the mHP-2, five peptide solutions were prepared to have peptide concentrations of: (11) 1.2 mg/ml, (12) 1.5 mg/ml, (13) 2.1 mg/ml, (14) 2.4 mg/ml and (15) 2.7 mg/ml. For the mHP-3, three peptide solutions were prepared to have peptide concentrations of: (16) 2.1 mg/ml, (17) 2.4 mg/ml and (18) 2.7 mg/ml. Further, plasmid vector (pDNA) was diluted with purified water to prepare a nucleic acid solution having a pDNA concentration of 3.0 mg/ml.
18 sets of nucleic acid solutions (90 μL) put in tubes were prepared and the peptide solutions (1) to (18) (90 μL) described above were dropped respectively therein and mixed while stirring each, to condense the nucleic acids. Thus, the peptide-nucleic-acid complexes were obtained. Then, the mixtures were each diluted with purified water to 25-fold to produce peptide-nucleic-acid solutions. Further, as references, samples containing only each respective peptide were also prepared without adding the nucleic acid solutions thereto.
The average particle diameter and Zeta potential of each of the peptide-nucleic-acid complexes were investigated using the peptide-nucleic-acid solutions. The average particle diameter and Zeta potential were measured using a zetasizer.

[2] = tested on: plasmid; assay: Amount of encapsulation of plasmid in liposome (Quant-iT PicoGreen dsDNA assay kit), Example 3; assay type: physicochemical
Experimental: (§1) COATSOME/SS-20 (Nippon Oil & Fats), DOPE, cholesterol and DMG-PEG were dissolved into ethanol at a molar ratio of 5:3:1:0.3, to obtain a lipid solution. Two sets of lipid solutions (0.5 ml) put into tubes were prepared, and 0.5 ml of peptide-nucleic-acid solutions (8) (mHP-1) and (16) (mHP-3) of Example 1 were dropped thereto while stirring each lipid solution, thereby forming liposomes. 9 ml of 10 mM-HEPES (pH: 5.3) was added to each of the liposome solutions to make a total amount of 10 ml (each liposome solution will be referred to as “Complex” hereinafter). Further, on an assumption that the liposome is taken into an organism, and liposome solutions (which will be referred to as “HEPES replacement”) in which ethanol, which is the solvent of Complex is substituted by HEPES were produced. The HEPES replacements were produced by condensing each solution of Complex to 1.5 ml with an ultrafiltration film for 300 kDa, adding 8.5 ml of 100 mM-HEPES (pH: 7.4) to each, performing ultrafiltration, thereafter substituting the solvent with 10 mM-HEPES (pH: 7.4), and finally condensing to 0.5 ml. Further, the HEPES replacements were filtered for sterilization with a filter with a pore diameter of 0.45 μm to prepare solutions (which will be referred to as “0.45 μm” hereinafter).
(§2) The “peptide-nucleic-acid solution”, “HEPES substituent” and “0.45 micrometer”, each of which contain the protamine, mHP-1 or mHP-3 prepared as above were examined in terms of average particle diameter of liposome, Zeta potential and amount of encapsulation of plasmid. The average particle diameter and Zeta potential were measured using a zetasizer. The amount of encapsulation of plasmid was measured using a Quant-iT PicoGreen (registered trademark) dsDNA assay kit.

[3] = Average particle diameter and Zeta potential of liposome (zetasizer), Example 3; assay type: physicochemical
Experimental: as §1, §2

[4] = Average particle diameter, polydispersity index and Zeta potential of liposome (Complex), Example 8; assay type: physicochemical
Experimental: COATSOME/SS-20 (Nippon Oil & Fats), DOPE, cholesterol and DMG-PEG were dissolved into ethanol at a molar ratio of 5:3:1:0.3, to obtain a lipid solution. Five sets of 50 μL of lipid solutions put into tubes were prepared, and 50 μL of peptide-nucleic-acid solutions (1) to (4) and (7) of Example 6 were dropped thereto while stirring each lipid solution, thereby forming liposomes. 400 μL of 10 mM-HEPES (pH: 5.4) was added to each of the liposome solutions to make a total amount of 500 μL (this liposome solution will be referred to as “Complex” hereinafter).
The average particle diameter, polydispersity index and Zeta potential of liposome were investigated using the Complex. The average particle diameter, polydispersity index and Zeta potential were measured using a zetasizer.

[5] = tested on: plasmid vector (pDNA); assay: Average particle diameter, polydispersity index and Zeta potential of peptide-nucleic-acid complexes, Example 6; assay type: physicochemical; conditions: peptide-nucleic-acid complex, total peptide 0.24 mg/ml, pDNA 0.15 mg/ml
Experimental: Each of the peptides was dissolved into 10 mM-HEPES (pH: 5.4) to prepare several peptide solutions having different peptide concentrations.
For the mHP-1, one peptide solution was prepared to have a peptide concentration of (1) 0.24 mg/ml. For the mHP-2, one peptide solution was prepared to have a peptide concentration of (2) 0.24 mg/ml. For the mHP-1 and mHP-2, five peptide solutions were prepared to have a total peptide concentration of 0.24 mg/ml and mixture ratios between mHP-1 and mHP-2 of: (3) 1:1, (4) 1:3, (5) 1:5, (6) 1:7 and (7) 1:9. Meanwhile, plasmid vector (pDNA) was diluted with purified water to prepare a nucleic acid solution having a pDNA concentration of 0.15 mg/ml.
The peptide solutions (1) to (7) (100 μL) were prepared in tubes and the nucleic acid solution (200 μL) was dropped and mixed thereto while stirring each solution to condense the nucleic acids, and thus peptide-nucleic-acid complexes were obtained.
The peptide-nucleic-acid complexes were investigated in terms of average particle diameter, polydispersity index and Zeta potential using the respective peptide-nucleic-acid solutions. The average particle diameter, polydispersity index and Zeta potential were measured using a zetasizer.

[6] = tested on: plasmid vector (pDNA); assay: Gel retardation assay: condensability and dissociation with M9, Example 11; assay type: binding
Experimental: Each of the peptides was dissolved in 10 mM-HEPES (pH: 5.4) and several peptide solutions having different peptide concentrations were prepared.
For M9, one peptide solution was prepared to have a peptide concentration of: (1) 0.24 mg/ml. For mHP-1 and mHP-2, peptide solutions were prepared to have a peptide concentration of 0.24 mg/ml and a mixture ratio between mHP-1 and mHP-2 of 1:3, and 1 μL of M9 was added to one to prepare a peptide solution (2), and M9 was not added to one to prepare a peptide solution (3). Moreover, the plasmid vector (pDNA) was diluted with purified water to prepare a nucleic acid solution having a pDNA concentration of 0.15 mg/ml. […]
As samples for the condensability evaluation, five sets of 5.5 μL of 10 mM-HEPES (pH: 5.4) were prepared, and 4.5 μL of the respective peptide-nucleic-acid solutions described above were added to prepare mixtures. […] After the electrophoresis, the nucleic acid dyed with ethidium bromide was visualized by UV irradiation, and the nucleic acids condensed by the peptide and the nucleic acid dissociating with the peptide and moving into the gel were detected.
FIG. 15 is a photograph showing the agarose gel subjected to UV irradiation. […] When an integrated band with a large molecular weight, which strongly shines is observed in the left lane, it was evaluated as a high condensability.

[7] = pDNA/peptide 1/0.6 (peptide conc. 1.8 mg/mL)
[8] = pDNA/peptide 1/0.7 (peptide conc. 2.1 mg/mL)
[9] = pDNA/peptide 1/0.8 (peptide conc. 2.4 mg/mL)
[10] = pDNA/peptide 1/0.9 (peptide conc. 2.7 mg/mL)
[11] = peptide solely, no nucleic acid (Reference)
[12] = pDNA/peptide 1/0.4 (peptide conc. 1.2 mg/mL)
[13] = pDNA/peptide 1/0.5 (peptide conc. 1.5 mg/mL)

Sequence	Average particle diameter (zAve) [1, 8] [nm]	Zeta potential [1, 8] [mV]	Average particle diameter (zAve) [1, 9] [nm]	Zeta potential [1, 9] [mV]	Average particle diameter (zAve) [1, 10] [nm]	Zeta potential [1, 10] [mV]	Average particle diameter (zAve) [1, 11] [nm]	Zeta potential [1, 11] [mV]	also measured
RRRRRRGGRRRRRR (Comperative example of nucleic acid condensing peptide) [mHP-4]	141.2	−30.7	323.4	28.6	212.2	33.0	1083.0	39.7	Average particle diameter (zAve) [1, 7]: 130.9 nm; Zeta potential [1, 7]: −23.8 mV
PRRRRSSSRPIRRRRPRRASRRRRRRGGRRRR (salmon) [Protamine sequence, reference compound]	136.5	−27.8	135.9	−24.9	139.6	−29.5	711.3	28.1	Plasmid inclusion amount ([2]; 0.45 μm filtered): 7.97 µg/mL; Plasmid inclusion amount ([2]; HEPES substitution): 12.68 µg/mL; Average particle diameter (zAve) ([3]; Peptide-nucleic acid solution): 167.8 nm; Zeta potential ([3]; Peptide-nucleic acid solution): −41.30 mV; Average particle diameter (zAve) ([3]; liposome, 0.45 μm filtered): 235.5 nm; Zeta potential ([3]; liposome, 0.45 μm filtered): −0.72 mV; Average particle diameter (zAve) ([3]; liposome, HEPES substitution): 392.2 nm; Zeta potential ([3]; liposome, HEPES substitution): −0.47 mV
RRRRRRYYRQRQRGGRRRRRR (Comperative example of nucleic acid condensing peptide) [mHP-2]	184.0	27.3	159.0	21.6	158.6	34.2	321.0	50.5	Average particle diameter (zAve) [1, 12]: 141.8 nm; Zeta potential [1, 12]: −27.7 mV; Average particle diameter (zAve) [1, 13]: 139.8 nm; Zeta potential [1, 13]: −17.7 mV; Average particle diameter (zAve) [4]: 250.0 nm; Polydispersity index (PDI) [4]: 0.092; Zeta potential [4]: 36.2 mV; Average particle diameter (zAve) [5]: 169.1 nm; Polydispersity index (PDI) [5]: 0.285; Zeta potential [5]: −34.1 mV
GNQSSNFGPMKGGNFGGRSSGPYGGGGQYFAKPRNQGGYGGGKCRGKVPGKYGKG [M9, third nucleic acid condensing peptide comprising M9 domain of hnRNP A1]									influence on condensability or dissociation of nucleic acid by mixed mHP-1 and mHP-2 peptide solution ([6]; M9 added to mHP-1:mHP-2 1:3 peptide solution (FIG. 15)): does not influence the condensability or dissociation; nucleic acid condensability ([6]; M9 used solely, 0.24 mg/ml, 0.8% agarose gel (FIG. 15)): does not exhibit nucleic acid condensability
